According to the supplement of paper PMC9112550, “Optimization of the antimicrobial peptide Bac7 by deep mutational scanning” (BMC Biology, 2022):

System: Escherichia coli TOP10
Experiment: shrunken log2 fold change of peptide-encoding DNA abundance (4.5 h post-induction vs induction); higher = less antimicrobial activity (less host growth inhibition)
Settings: time post-induction: 4.5 h; library: site-saturation at positions 5, 18, 19, 20
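Note: peptides expressed intracellularly from a pBAD plasmid library in pooled LB shake-flask culture, induced with 0.3% L-arabinose, DNA abundance read by NGS, three biological replicates, DESeq2 with apeglm shrinkage.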

Q: How did the “shrunken log2 fold change” value turn out when RRIRNRPPRLPRPRPRPSPYPRP was run?
A: Its value is -0.507.

Q: RRIRKRPPRLPRPRPRPRKIPRP was tested. Which “shrunken log2 fold change” value did it give?
A: The value was 0.968.

Q: How did the “shrunken log2 fold change” value turn out when RRIRYRPPRLPRPRPRPWKSPRP was run?
A: The value was -0.118.

Q: Which “shrunken log2 fold change” value does the source give for RRIRRRPPRLPRPRPRPKGQPRP here?
A: The value was 0.176.

Q: With RRIRNRPPRLPRPRPRPCCCPRP as the sequence, how does the “shrunken log2 fold change” value read?
A: Its value is -0.0783.

Q: With RRIRFRPPRLPRPRPRPLHTPRP as the sequence, how does the “shrunken log2 fold change” value read?
A: The value was -0.262.

Q: Which “shrunken log2 fold change” value does the source give for RRIRHRPPRLPRPRPRPQRYPRP here?
A: The value was -0.0589.

Q: For RRIRDRPPRLPRPRPRPPTFPRP, which “shrunken log2 fold change” value is on record?
A: The value was -0.158.

Q: How did the “shrunken log2 fold change” value turn out when RRIRSRPPRLPRPRPRPAQTPRP was run?
A: The value was 0.0615.

Q: With RRIRFRPPRLPRPRPRPRGKPRP as the sequence, how does the “shrunken log2 fold change” value read?
A: The value was 0.734.

Q: Which “shrunken log2 fold change” value does the source give for RRIRDRPPRLPRPRPRPDICPRP here?
A: Its value is -0.0418.

Q: Which “shrunken log2 fold change” value does the source give for RRIRQRPPRLPRPRPRPCKNPRP here?
A: Its value is -0.409.

Q: RRIRARPPRLPRPRPRPFHDPRP was tested. Which “shrunken log2 fold change” value did it give?
A: The value was -0.356.

Q: Which “shrunken log2 fold change” value does the source give for RRIRVRPPRLPRPRPRPLCHPRP here?
A: Its value is -0.364.

Q: With RRIRNRPPRLPRPRPRPRFCPRP as the sequence, how does the “shrunken log2 fold change” value read?
A: The value was 0.254.

Q: Which “shrunken log2 fold change” value does the source give for RRIRGRPPRLPRPRPRPCCSPRP here?
A: Its value is 0.107.

Q: How did the “shrunken log2 fold change” value turn out when RRIRNRPPRLPRPRPRPMWGPRP was run?
A: Its value is -0.018.

Q: How did the “shrunken log2 fold change” value turn out when RRIRWRPPRLPRPRPRPESWPRP was run?
A: The value was 1.05.

Q: With RRIRRRPPRLPRPRPRPDGIPRP as the sequence, how does the “shrunken log2 fold change” value read?
A: The value was 0.282.

Q: How did the “shrunken log2 fold change” value turn out when RRIRRRPPRLPRPRPRPKHYPRP was run?
A: The value was 0.227.

Q: With RRIRLRPPRLPRPRPRPWEKPRP as the sequence, how does the “shrunken log2 fold change” value read?
A: Its value is 0.0916.

Q: With RRIRCRPPRLPRPRPRPYEAPRP as the sequence, how does the “shrunken log2 fold change” value read?
A: Its value is -0.511.

Q: How did the “shrunken log2 fold change” value turn out when RRIRCRPPRLPRPRPRPQFNPRP was run?
A: Its value is -0.98.

Q: For RRIRGRPPRLPRPRPRPYMYPRP, which “shrunken log2 fold change” value is on record?
A: The value was -0.251.

Q: How did the “shrunken log2 fold change” value turn out when RRIRYRPPRLPRPRPRPTHDPRP was run?
A: The value was 0.032.

Q: With RRIRVRPPRLPRPRPRPCASPRP as the sequence, how does the “shrunken log2 fold change” value read?
A: The value was 0.116.

Q: How did the “shrunken log2 fold change” value turn out when RRIRIRPPRLPRPRPRPDIDPRP was run?
A: The value was -0.151.

Q: RRIRMRPPRLPRPRPRPCNMPRP was tested. Which “shrunken log2 fold change” value did it give?
A: The value was -0.126.

Q: Which “shrunken log2 fold change” value does the source give for RRIRQRPPRLPRPRPRPMKSPRP here?
A: The value was 0.0232.

Q: For RRIRMRPPRLPRPRPRPRFSPRP, which “shrunken log2 fold change” value is on record?
A: The value was 0.206.

Q: Which “shrunken log2 fold change” value does the source give for RRIRTRPPRLPRPRPRPNKSPRP here?
A: The value was -0.315.

Q: RRIRPRPPRLPRPRPRPPWRPRP was tested. Which “shrunken log2 fold change” value did it give?
A: The value was 0.558.

Q: With RRIRSRPPRLPRPRPRPFNMPRP as the sequence, how does the “shrunken log2 fold change” value read?
A: The value was -0.907.

Q: With RRIRLRPPRLPRPRPRPEDGPRP as the sequence, how does the “shrunken log2 fold change” value read?
A: The value was -0.0468.

Q: RRIRTRPPRLPRPRPRPEFYPRP was tested. Which “shrunken log2 fold change” value did it give?
A: Its value is -0.212.

Q: How did the “shrunken log2 fold change” value turn out when RRIRCRPPRLPRPRPRPSWCPRP was run?
A: Its value is -0.417.

Q: For RRIRQRPPRLPRPRPRPKRDPRP, which “shrunken log2 fold change” value is on record?
A: The value was 0.114.

Q: Which “shrunken log2 fold change” value does the source give for RRIRCRPPRLPRPRPRPTGRPRP here?
A: The value was 0.238.

Q: How did the “shrunken log2 fold change” value turn out when RRIRVRPPRLPRPRPRPESDPRP was run?
A: The value was 0.0889.

Q: Which “shrunken log2 fold change” value does the source give for RRIRQRPPRLPRPRPRPLKMPRP here?
A: The value was -0.269.

Q: How did the “shrunken log2 fold change” value turn out when RRIRARPPRLPRPRPRPLIKPRP was run?
A: Its value is 0.0844.

Q: How did the “shrunken log2 fold change” value turn out when RRIRYRPPRLPRPRPRPWNGPRP was run?
A: The value was -0.155.

Q: How did the “shrunken log2 fold change” value turn out when RRIRRRPPRLPRPRPRPKSQPRP was run?
A: Its value is 0.104.

Q: With RRIRRRPPRLPRPRPRPPTKPRP as the sequence, how does the “shrunken log2 fold change” value read?
A: Its value is 0.52.

Q: For RRIRPRPPRLPRPRPRPLWTPRP, which “shrunken log2 fold change” value is on record?
A: Its value is 0.0798.

Q: RRIRRRPPRLPRPRPRPIRSPRP was tested. Which “shrunken log2 fold change” value did it give?
A: The value was 0.022.

Q: With RRIRSRPPRLPRPRPRPQNSPRP as the sequence, how does the “shrunken log2 fold change” value read?
A: Its value is -0.207.

Q: RRIRARPPRLPRPRPRPIIHPRP was tested. Which “shrunken log2 fold change” value did it give?
A: The value was -0.216.

Q: How did the “shrunken log2 fold change” value turn out when RRIRARPPRLPRPRPRPQLEPRP was run?
A: Its value is 0.63.

Q: How did the “shrunken log2 fold change” value turn out when RRIRMRPPRLPRPRPRPFDDPRP was run?
A: Its value is 0.243.

Q: For RRIRPRPPRLPRPRPRPLVCPRP, which “shrunken log2 fold change” value is on record?
A: Its value is 0.272.

Q: For RRIRGRPPRLPRPRPRPHTHPRP, which “shrunken log2 fold change” value is on record?
A: Its value is 0.0537.

Q: With RRIRRRPPRLPRPRPRPHHLPRP as the sequence, how does the “shrunken log2 fold change” value read?
A: Its value is -0.0855.

Q: RRIRNRPPRLPRPRPRPLTEPRP was tested. Which “shrunken log2 fold change” value did it give?
A: Its value is 0.284.

Q: Which “shrunken log2 fold change” value does the source give for RRIRMRPPRLPRPRPRPQCSPRP here?
A: Its value is 0.113.

Q: RRIRLRPPRLPRPRPRPGKNPRP was tested. Which “shrunken log2 fold change” value did it give?
A: Its value is -0.304.

Q: Which “shrunken log2 fold change” value does the source give for RRIRVRPPRLPRPRPRPSTEPRP here?
A: Its value is -0.331.

Q: RRIRWRPPRLPRPRPRPHAAPRP was tested. Which “shrunken log2 fold change” value did it give?
A: Its value is 0.45.

Q: Which “shrunken log2 fold change” value does the source give for RRIRCRPPRLPRPRPRPLDEPRP here?
A: The value was 0.151.

Q: For RRIRQRPPRLPRPRPRPTMFPRP, which “shrunken log2 fold change” value is on record?
A: Its value is -0.208.

Q: RRIRNRPPRLPRPRPRPPDAPRP was tested. Which “shrunken log2 fold change” value did it give?
A: Its value is 0.0157.

Q: How did the “shrunken log2 fold change” value turn out when RRIRPRPPRLPRPRPRPVEKPRP was run?
A: The value was 0.00127.

Q: RRIRCRPPRLPRPRPRPEDGPRP was tested. Which “shrunken log2 fold change” value did it give?
A: The value was -0.0134.

Q: RRIRKRPPRLPRPRPRPCSDPRP was tested. Which “shrunken log2 fold change” value did it give?
A: The value was -0.0361.

Q: How did the “shrunken log2 fold change” value turn out when RRIRWRPPRLPRPRPRPFYKPRP was run?
A: The value was -0.658.

Q: Which “shrunken log2 fold change” value does the source give for RRIRSRPPRLPRPRPRPNQRPRP here?
A: Its value is 0.0415.

Q: RRIRPRPPRLPRPRPRPLDDPRP was tested. Which “shrunken log2 fold change” value did it give?
A: Its value is 0.0437.

Q: How did the “shrunken log2 fold change” value turn out when RRIRHRPPRLPRPRPRPAVFPRP was run?
A: The value was -0.0167.

Q: How did the “shrunken log2 fold change” value turn out when RRIRIRPPRLPRPRPRPSGYPRP was run?
A: Its value is 0.00435.

Q: RRIRQRPPRLPRPRPRPDNIPRP was tested. Which “shrunken log2 fold change” value did it give?
A: The value was -0.00584.

Q: How did the “shrunken log2 fold change” value turn out when RRIRPRPPRLPRPRPRPAPGPRP was run?
A: The value was 0.645.

Q: For RRIRNRPPRLPRPRPRPRDCPRP, which “shrunken log2 fold change” value is on record?
A: The value was 0.0442.

Q: RRIRNRPPRLPRPRPRPEMMPRP was tested. Which “shrunken log2 fold change” value did it give?
A: The value was 0.317.

Q: How did the “shrunken log2 fold change” value turn out when RRIRIRPPRLPRPRPRPFTGPRP was run?
A: The value was -1.27.

Q: RRIRWRPPRLPRPRPRPIWYPRP was tested. Which “shrunken log2 fold change” value did it give?
A: The value was -0.149.
